In general, Kd refers to the free concentration of one partner at which half of the binding sites on the other are occupied at equilibrium, for simple one-to-one binding. A high value points to lower affinity.

The source of these data is paper PMC7057996, “Human glutaredoxin-1 can transfer copper to isolated metal binding domains of the P1B-type ATPase, ATP7B” (Scientific Reports, 2020).

The target in assay [1] is T1, ATP7B metal binding domains 5-6 (human, UniProt P35670 486-633).
T1 sequence (looked up): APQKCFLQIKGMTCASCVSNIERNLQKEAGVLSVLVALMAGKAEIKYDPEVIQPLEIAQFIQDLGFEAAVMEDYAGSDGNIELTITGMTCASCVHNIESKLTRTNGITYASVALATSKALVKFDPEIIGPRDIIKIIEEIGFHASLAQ
Put plainly: cell-based or functional assay.

The target in assay [2] is T1, ATP7B metal binding domains 5-6. The experiment in a line: NMR titration; 15N-1H HSQC of apo-15N-hGrx1 (320-350 uM) titrated with unlabelled apo-Atox1 or apo-WLN5-6 to 2.0:1 (partner:hGrx1); no Cu; 4 °C; 10 mM MES/Na, 50 mM NaCl, 1 mM TCEP, pH 6.0; intensity changes of the Cys26 and Thr69 peaks fitted to a 1:1 binding model. As to conditions: both partners purified.

B1: human glutaredoxin-1 (enzyme)
chain: MAQEFVNCKIQPGKVVVFIKPTCPYCRRAQEILSQLPIKQGLLEFVDITATNHTNEIQDYLQQLTGARTVPRVFIGKDCIGGCSDLVSLQQSGELLTRLKQIGALQ
notes: human glutaredoxin-1 (hGrx1), UniProtKB P35754; printed as a 106-residue construct (excluding non-native residues left at the N-terminus by cleavage); 15N-labelled (or 13C/15N-labelled) for NMR; used as apo protein and loaded with Cu(I) (1:1); Non-native residues of the PreScission site remain at the N-terminus; also called hGrx1; Grx1; source: E. coli BL21 Codon Plus (DE3), purified (glutathione …)
On to B1, for which, in assay [1], the “Cu(I) distribution WLN5-6:hGrx1/Atox1 after incubation of Cu(I)-hGrx1 with apo-Atox1 and apo-WLN5-6 at 1:1:1, SEC-ICP-MS” value is ~9 ratio WLN5-6:hGrx1/Atox1. For the same molecule, the Kd in assay [2] was determined as 7 ± 4 µM.
